Each block holds one molecule with its values, some of them ahead of it. No end group written: not given here.
Assays:
[1] = molecular target: PLK4 884-970 (Homo sapiens) (UniProt O00444); assay: ITC; settings: cited from earlier work
[2] = molecular target: STIL CCD_(718–749) L736E; assay: crystal structure; L736E crystallized at 0.9 mM peptide, 50 mM Tris pH 8.0, 10% v/v MPD, 4 °C; 1.67 Å
[3] = test system: Stil−/− mouse embryonic fibroblasts; settings: full-length STIL expressed in Stil−/− mouse embryonic fibroblasts; ref [14]; cited from earlier work
Excerpt: Presumably, this is due to the disruption of the hydrophobic CC interactions upon mutation from the hydrophobic Leu to the charged Glu. […] Other ...

[4] = molecular target: T1, WT STIL CCD peptide labelled with 7-(Diethylamino)coumarin-3-carboxylic acid (7-(Diethylamino)coumarin-3-carboxylic acid on the N-terminus; C-terminal amide); assay: other fluorescence titration; fluorescence read on a Monolith NT.115 (micro-scale thermophoresis instrument); 5 µM coumarin-labelled peptide with unlabelled peptide 9 nM to 300 µM; 25 mM sodium phosphate pH 6.8, ionic strength 154 mM (NaCl), 5% DMSO, room temperature (24 °C); Hill fit; apparent; taken by the paper as dimer to monomers; settings: both partners purified
T1 construct: STIL coiled-coil domain, residues 718-749; also called labeled-WT CCD; fluorophore-labelled peptide; source: synthetic peptide (Fmoc-SPPS, fluorophore coupled on the resin, RP-HPLC purified)
T1 peptide: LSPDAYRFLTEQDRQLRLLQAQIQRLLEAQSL

[5] = molecular target: the molecule itself; assay: AUC; sedimentation velocity, 12.5 µM peptide, c(s) distribution; 20 °C, 25 mM sodium phosphate pH 6.8, ionic strength 154 mM (NaCl)
[6] = molecular target: the molecule itself; assay: AUC; sedimentation equilibrium, starting concentrations 5, 10 and 20 µM, unlabelled peptide, no DMSO; 20 °C, sodium phosphate pH 6.8 with NaCl; fitted to a single ideal species (N) and, for the WT, to a dimer-tetramer model (apparent KD: tetramer to dimers)
[7] = molecular target: T2, STIL CCD peptide with a different fluorophore (fluorescence polarization) (a fluorophore other than the coumarin, not named, position not stated; C-terminal amide); assay: fluorescence polarisation; same STIL CCD peptide with a different fluorophore; Hill fit; dimer to monomers; settings: both partners purified
T2 construct: STIL coiled-coil domain, residues 718-749; also called same STIL CCD peptide and different fluorophore; source: synthetic peptide
T2 peptide: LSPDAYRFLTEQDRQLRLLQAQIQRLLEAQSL

[8] = molecular target: the molecule itself; assay: AUC; sedimentation velocity, 75 µM peptide, c(s) distribution; 20 °C, 25 mM sodium phosphate pH 6.8, ionic strength 154 mM (NaCl)
[9] = molecular target: the molecule itself; assay: AUC; sedimentation equilibrium, starting concentrations 5, 10 and 20 µM, unlabelled peptide, no DMSO; 20 °C, sodium phosphate pH 6.8 with NaCl; fitted to a single ideal species (N) and, for the WT, to a dimer-tetramer model (apparent KD: tetramer to dimers); remark: listed apart in the source
[10] = molecular target: the molecule itself; assay: AUC; sedimentation velocity, 500 µM peptide, c(s) distribution; 20 °C, 25 mM sodium phosphate pH 6.8, ionic strength 154 mM (NaCl)
[11] = molecular target: the molecule itself; assay: AUC; sedimentation velocity, 10 µM peptide, c(s) distribution; 20 °C, 25 mM sodium phosphate pH 6.8, ionic strength 154 mM (NaCl)

Chain of PLK4 884-970 (Homo sapiens) (O00444 884-970): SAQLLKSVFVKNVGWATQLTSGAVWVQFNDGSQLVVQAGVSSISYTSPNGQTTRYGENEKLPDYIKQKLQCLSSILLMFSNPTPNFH

Molecule: STIL CCD (from UniProt Q15468)
Kd [1]: 0.28 µM

stoichiometry N [2]: 2
Molecule: STIL CCD_(718–749) L736E (peptide)

B1: full-length L736E mutant: full-length STIL protein with L736E mutation (protein, UniProt Q15468 1-1287, looked up, variant L736E)
chain: MEPIYPFARPQMNTRFPSSRMVPFHFPPSKCALWNPTPTGDFIYLHLSYYRNPKLVVTEKTIRLAYRHAKQNKKNSSCFLLGSLTADEDEEGVTLTVDRFDPGREVPECLEITPTASLPGDFLIPCKVHTQELCSREMIVHSVDDFSSALKALQCHICSKDSLDCGKLLSLRVHITSRESLDSVEFDLHWAAVTLANNFKCTPVKPIPIIPTALARNLSSNLNISQVQGTYKYGYLTMDETRKLLLLLESDPKVYSLPLVGIWLSGITHIYSPQVWACCLRYIFNSSVQERVFSESGNFIIVLYSMTHKEPEFYECFPCDGKIPDFRFQLLTSKETLHLFKNVEPPDKNPIRCELSAESQNAETEFFSKASKNFSIKRSSQKLSSGKMPIHDHDSGVEDEDFSPRPIPSPHPVSQKISKIQPSVPELSLVLDGNFIESNPLPTPLEMVNNENPPLINHLEHLKPLQPQLYDEKHSPEVEAGEPSLRGIPNQLNQDKPALLRHCKVRQPPAYKKGNPHTRNSIKPSSHNGPSHDIFEKLQTVSAGNVQNEEYPIRPSTLNSRQSSLAPQSQPHDFVFSPHNSGRPMELQIPTPPLPSYCSTNVCRCCQHHSHIQYSPLNSWQGANTVGSIQDVQSEALQKHSLFHPSGCPALYCNAFCSSSSPIALRPQGDMGSCSPHSNIEPSPVARPPSHMDLCNPQPCTVCMHTPKTESDNGMMGLSPDAYRFLTEQDRQLRLEQAQIQRLLEAQSLMPCSPKTTAVEDTVQAGRQMELVSVEAQSSPGLHMRKGVSIAVSTGASLFWNAAGEDQEPDSQMKQDDTKISSEDMNFSVDINNEVTSLPGSASSLKAVDIPSFEESNIAVEEEFNQPLSVSNSSLVVRKEPDVPVFFPSGQLAESVSMCLQTGPTGGASNNSETSEEPKIEHVMQPLLHQPSDNQKIYQDLLGQVNHLLNSSSKETEQPSTKAVIISHECTRTQNVYHTKKKTHHSRLVDKDCVLNATLKQLRSLGVKIDSPTKVKKNAHNVDHASVLACISPEAVISGLNCMSFANVGMSGLSPNGVDLSMEANAIALKYLNENQLSQLSVTRSNQNNCDPFSLLHINTDRSTVGLSLISPNNMSFATKKYMKRYGLLQSSDNSEDEEEPPDNADSKSEYLLNQNLRSIPEQLGGQKEPSKNDHEIINCSNCESVGTNADTPVLRNITNEVLQTKAKQQLTEKPAFLVKNLKPSPAVNLRTGKAEFTQHPEKENEGDITIFPESLQPSETLKQMNSMNSVGTFLDVKRLRQLPKLF
modifications: full-length
notes: full-length STIL protein with L736E mutation
formation of centrosomes and cilia (in words) [3]: completely disrupts the formation of centrosomes and cilia

B2: WT STIL: full-length wild-type STIL protein (protein, UniProt Q15468 1-1287, looked up)
chain: MEPIYPFARPQMNTRFPSSRMVPFHFPPSKCALWNPTPTGDFIYLHLSYYRNPKLVVTEKTIRLAYRHAKQNKKNSSCFLLGSLTADEDEEGVTLTVDRFDPGREVPECLEITPTASLPGDFLIPCKVHTQELCSREMIVHSVDDFSSALKALQCHICSKDSLDCGKLLSLRVHITSRESLDSVEFDLHWAAVTLANNFKCTPVKPIPIIPTALARNLSSNLNISQVQGTYKYGYLTMDETRKLLLLLESDPKVYSLPLVGIWLSGITHIYSPQVWACCLRYIFNSSVQERVFSESGNFIIVLYSMTHKEPEFYECFPCDGKIPDFRFQLLTSKETLHLFKNVEPPDKNPIRCELSAESQNAETEFFSKASKNFSIKRSSQKLSSGKMPIHDHDSGVEDEDFSPRPIPSPHPVSQKISKIQPSVPELSLVLDGNFIESNPLPTPLEMVNNENPPLINHLEHLKPLQPQLYDEKHSPEVEAGEPSLRGIPNQLNQDKPALLRHCKVRQPPAYKKGNPHTRNSIKPSSHNGPSHDIFEKLQTVSAGNVQNEEYPIRPSTLNSRQSSLAPQSQPHDFVFSPHNSGRPMELQIPTPPLPSYCSTNVCRCCQHHSHIQYSPLNSWQGANTVGSIQDVQSEALQKHSLFHPSGCPALYCNAFCSSSSPIALRPQGDMGSCSPHSNIEPSPVARPPSHMDLCNPQPCTVCMHTPKTESDNGMMGLSPDAYRFLTEQDRQLRLLQAQIQRLLEAQSLMPCSPKTTAVEDTVQAGRQMELVSVEAQSSPGLHMRKGVSIAVSTGASLFWNAAGEDQEPDSQMKQDDTKISSEDMNFSVDINNEVTSLPGSASSLKAVDIPSFEESNIAVEEEFNQPLSVSNSSLVVRKEPDVPVFFPSGQLAESVSMCLQTGPTGGASNNSETSEEPKIEHVMQPLLHQPSDNQKIYQDLLGQVNHLLNSSSKETEQPSTKAVIISHECTRTQNVYHTKKKTHHSRLVDKDCVLNATLKQLRSLGVKIDSPTKVKKNAHNVDHASVLACISPEAVISGLNCMSFANVGMSGLSPNGVDLSMEANAIALKYLNENQLSQLSVTRSNQNNCDPFSLLHINTDRSTVGLSLISPNNMSFATKKYMKRYGLLQSSDNSEDEEEPPDNADSKSEYLLNQNLRSIPEQLGGQKEPSKNDHEIINCSNCESVGTNADTPVLRNITNEVLQTKAKQQLTEKPAFLVKNLKPSPAVNLRTGKAEFTQHPEKENEGDITIFPESLQPSETLKQMNSMNSVGTFLDVKRLRQLPKLF
modifications: full-length
notes: full-length wild-type STIL protein
formation of centrosomes and cilia (in words) [3]: rescues this phenotype

Kd [4]: 8 ± 2 µM
Kd [7]: 8.5 ± 0.4 µM
B3: STIL CCD_(718–749) WT (peptide)
peptide: LSPDAYRFLTEQDRQLRLLQAQIQRLLEAQSL-NH2
notes: STIL (SCL/TAL1 Interrupting Locus) coiled-coil domain, residues 718-749; 32-residue peptide, unlabelled; also called WT STIL CCD peptide; WT CCD; source: synthetic peptide (Fmoc-SPPS on rink amide, RP-HPLC purified)
stoichiometry N [5]: 2 × monomer mass
Kd [6]: 68 ± 2 µM
stoichiometry N [8]: 3.27 × monomer mass
stoichiometry N [9]: 2.9 ± 0.04
stoichiometry N [10]: 3.4 × monomer mass
stoichiometry N [11]: 1.7
